Source: patent US20230372448A1, “THERAPEUTIC USE OF LONG-ACTING CONJUGATE OF TRIPLE AGONIST ACTING ON ALL OF GLUCAGON, GLP-1 AND GIP RECEPTORS AGAINST MULTIPLE SCLEROSIS” (HANMI PHARM. CO. ,LTD., priority 2020, published 2023)
Positions of bridges follow the written chain, without caps; N, C: chain ends. Non-standard residues stand in square brackets, D forms with d. No end group written: not given here. *: point of attachment. Acetyl(2-(4-imidazolyl)) = O=C(Cc1c[nH]cn1)*; Aib = CC(C)(N)C(=O)O

T1: human GIP receptor (human, UniProt P48546 22-466)
T1 sequence (looked up): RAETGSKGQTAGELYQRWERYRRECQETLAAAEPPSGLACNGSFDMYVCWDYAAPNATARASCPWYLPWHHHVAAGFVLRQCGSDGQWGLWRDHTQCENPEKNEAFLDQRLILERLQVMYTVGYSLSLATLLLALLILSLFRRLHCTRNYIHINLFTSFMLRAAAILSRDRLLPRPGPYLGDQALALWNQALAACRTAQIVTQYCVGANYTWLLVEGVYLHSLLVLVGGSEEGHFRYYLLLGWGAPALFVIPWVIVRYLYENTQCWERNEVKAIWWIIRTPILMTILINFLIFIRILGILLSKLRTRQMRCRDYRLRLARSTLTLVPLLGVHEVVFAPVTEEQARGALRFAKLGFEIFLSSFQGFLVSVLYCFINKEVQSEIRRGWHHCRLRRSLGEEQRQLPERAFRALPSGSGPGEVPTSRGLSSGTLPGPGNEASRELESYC


Target: human GLP-1 receptor (human, UniProt P43220 24-463)
Test: cell-based or functional assay

Row | Binder | In vitro activity (%) compared with native peptide: vs GLP-1 [%]
1 | {Acetyl(2-(4-imidazolyl))}-[Aib]QGTFTSDYSKYLDEKRQKEFVQWLLDTKC (bridge 15-19; not fully specified) [triple agonist of SEQ ID NO: 89] | 7.1
2 | Y[Aib]QGTFTSDYSKALDEKAAKEFVQWLLDQHPSSGQPPPSC (bridge 16-20) [triple agonist of SEQ ID NO: 100] | 42.2
3 | {Acetyl(2-(4-imidazolyl))}-[Aib]QGTFTSDYSKYLDEKRQKEFVQWLLDTC (bridge 15-19; not fully specified) [triple agonist of SEQ ID NO: 82] | 9.5
4 | H[Aib]EGTFTSDYSIAMDEIHQKDFVDWLLAEKC (bridge 16-20; not fully specified) [triple agonist of SEQ ID NO: 80] | 8.1
5 | {Acetyl(2-(4-imidazolyl))}-[Aib]QGTFTSDYSKYLDEKRQKEFVNWLLAQC (bridge 15-19; not fully specified) [triple agonist of SEQ ID NO: 86] | 28.4
6 | {Acetyl(2-(4-imidazolyl))}-[Aib]EGTFTSDYSIAMDEIHQKDFVDWLLAEC (bridge 15-19; not fully specified) [triple agonist of SEQ ID NO: 84] | 4.2
7 | {Acetyl(2-(4-imidazolyl))}-[Aib]QGTFTSDYSIAMDEIHQKDFVNWLLNTC (bridge 15-19; not fully specified) [triple agonist of SEQ ID NO: 87] | 0.9
8 | {Acetyl(2-(4-imidazolyl))}-[Aib]QGTFTSDYSIAMDEIHQKDFVNWLLNTKC (bridge 15-19; not fully specified) [triple agonist of SEQ ID NO: 94] | 0.5
9 | {Acetyl(2-(4-imidazolyl))}-GEGTFTSDLSKYLDSRRQQLFVQWLKAGGPSSGAPPPSHG (not fully specified; also: ring from underlined residues, positions not shown) [triple agonist of SEQ ID NO: 11] | 1.4
10 | H[Aib]QGTFTSDVSKYLDGQAAQEFVAWLLAGGGPSSGAPPPSC (not fully specified) [triple agonist of SEQ ID NO: 10] | 46
11 | Y[Aib]QGTFTSDYSKALDEKAAKDFVNWLLDHHPSSGQPPPSC (bridge 16-20; not fully specified) [triple agonist of SEQ ID NO: 99] | 20.9
12 | Y[Aib]QGTFTSDYSKYLDEKRAKEFVQWLLDHCPSSGQPPPS (bridge 16-20; not fully specified) [triple agonist of SEQ ID NO: 96] | 34.4
13 | {Acetyl(2-(4-imidazolyl))}-[Aib]EGTFTSDYSIAMDEIHQKDFVDWLLAEKC (bridge 15-19; not fully specified) [triple agonist of SEQ ID NO: 91] | 31.9

Target: human GCG receptor (human, UniProt P47871 26-477)
Test: cell-based or functional assay

Sequence of human GCG receptor (P47871 26-477): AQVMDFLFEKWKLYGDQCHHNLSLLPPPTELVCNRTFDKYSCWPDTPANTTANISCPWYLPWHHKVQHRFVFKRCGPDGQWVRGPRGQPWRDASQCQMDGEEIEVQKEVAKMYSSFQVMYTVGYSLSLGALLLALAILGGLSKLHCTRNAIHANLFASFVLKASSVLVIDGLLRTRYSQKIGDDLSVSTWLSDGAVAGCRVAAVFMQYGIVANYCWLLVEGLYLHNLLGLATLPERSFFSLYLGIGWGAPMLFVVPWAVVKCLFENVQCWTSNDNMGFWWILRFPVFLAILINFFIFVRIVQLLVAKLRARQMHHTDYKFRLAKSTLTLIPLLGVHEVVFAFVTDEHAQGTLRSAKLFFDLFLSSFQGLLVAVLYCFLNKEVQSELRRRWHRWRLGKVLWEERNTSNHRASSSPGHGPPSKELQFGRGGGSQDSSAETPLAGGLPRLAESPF

Row | Binder | In vitro activity (%) compared with native peptide: vs Glucagon [%]
14 | {Acetyl(2-(4-imidazolyl))}-[Aib]QGTFTSDYSKYLDEKRQKEFVQWLLDTKC (bridge 15-19; not fully specified) [triple agonist of SEQ ID NO: 89] | 0.7
15 | Y[Aib]QGTFTSDYSKALDEKAAKEFVQWLLDQHPSSGQPPPSC (bridge 16-20) [triple agonist of SEQ ID NO: 100] | 12.7
16 | {Acetyl(2-(4-imidazolyl))}-[Aib]QGTFTSDYSKYLDEKRQKEFVQWLLDTC (bridge 15-19; not fully specified) [triple agonist of SEQ ID NO: 82] | 1.1
17 | H[Aib]EGTFTSDYSIAMDEIHQKDFVDWLLAEKC (bridge 16-20; not fully specified) [triple agonist of SEQ ID NO: 80] | 0
18 | {Acetyl(2-(4-imidazolyl))}-[Aib]QGTFTSDYSKYLDEKRQKEFVNWLLAQC (bridge 15-19; not fully specified) [triple agonist of SEQ ID NO: 86] | 0.4
19 | {Acetyl(2-(4-imidazolyl))}-[Aib]EGTFTSDYSIAMDEIHQKDFVDWLLAEC (bridge 15-19; not fully specified) [triple agonist of SEQ ID NO: 84] | < 0.1
20 | {Acetyl(2-(4-imidazolyl))}-[Aib]QGTFTSDYSIAMDEIHQKDFVNWLLNTC (bridge 15-19; not fully specified) [triple agonist of SEQ ID NO: 87] | < 0.1
21 | {Acetyl(2-(4-imidazolyl))}-[Aib]QGTFTSDYSIAMDEIHQKDFVNWLLNTKC (bridge 15-19; not fully specified) [triple agonist of SEQ ID NO: 94] | < 0.1
22 | {Acetyl(2-(4-imidazolyl))}-GEGTFTSDLSKYLDSRRQQLFVQWLKAGGPSSGAPPPSHG (not fully specified; also: ring from underlined residues, positions not shown) [triple agonist of SEQ ID NO: 11] | < 0.1
23 | H[Aib]QGTFTSDVSKYLDGQAAQEFVAWLLAGGGPSSGAPPPSC (not fully specified) [triple agonist of SEQ ID NO: 10] | < 0.1
24 | Y[Aib]QGTFTSDYSKALDEKAAKDFVNWLLDHHPSSGQPPPSC (bridge 16-20; not fully specified) [triple agonist of SEQ ID NO: 99] | 14.9
25 | Y[Aib]QGTFTSDYSKYLDEKRAKEFVQWLLDHCPSSGQPPPS (bridge 16-20; not fully specified) [triple agonist of SEQ ID NO: 96] | 195
26 | {Acetyl(2-(4-imidazolyl))}-[Aib]EGTFTSDYSIAMDEIHQKDFVDWLLAEKC (bridge 15-19; not fully specified) [triple agonist of SEQ ID NO: 91] | 16.8

Target: T1, human GIP receptor
Test: cell-based or functional assay

Row | Binder | In vitro activity (%) compared with native peptide: vs GIP [%]
27 | {Acetyl(2-(4-imidazolyl))}-[Aib]QGTFTSDYSKYLDEKRQKEFVQWLLDTKC (bridge 15-19; not fully specified) [triple agonist of SEQ ID NO: 89] | < 0.1
28 | Y[Aib]QGTFTSDYSKALDEKAAKEFVQWLLDQHPSSGQPPPSC (bridge 16-20) [triple agonist of SEQ ID NO: 100] | 118
29 | {Acetyl(2-(4-imidazolyl))}-[Aib]QGTFTSDYSKYLDEKRQKEFVQWLLDTC (bridge 15-19; not fully specified) [triple agonist of SEQ ID NO: 82] | < 0.1
30 | H[Aib]EGTFTSDYSIAMDEIHQKDFVDWLLAEKC (bridge 16-20; not fully specified) [triple agonist of SEQ ID NO: 80] | 0.1
31 | {Acetyl(2-(4-imidazolyl))}-[Aib]QGTFTSDYSKYLDEKRQKEFVNWLLAQC (bridge 15-19; not fully specified) [triple agonist of SEQ ID NO: 86] | 0.2
32 | {Acetyl(2-(4-imidazolyl))}-[Aib]EGTFTSDYSIAMDEIHQKDFVDWLLAEC (bridge 15-19; not fully specified) [triple agonist of SEQ ID NO: 84] | < 0.1
33 | {Acetyl(2-(4-imidazolyl))}-[Aib]QGTFTSDYSIAMDEIHQKDFVNWLLNTC (bridge 15-19; not fully specified) [triple agonist of SEQ ID NO: 87] | < 0.1
34 | {Acetyl(2-(4-imidazolyl))}-[Aib]QGTFTSDYSIAMDEIHQKDFVNWLLNTKC (bridge 15-19; not fully specified) [triple agonist of SEQ ID NO: 94] | < 0.1
35 | {Acetyl(2-(4-imidazolyl))}-GEGTFTSDLSKYLDSRRQQLFVQWLKAGGPSSGAPPPSHG (not fully specified; also: ring from underlined residues, positions not shown) [triple agonist of SEQ ID NO: 11] | < 0.1
36 | H[Aib]QGTFTSDVSKYLDGQAAQEFVAWLLAGGGPSSGAPPPSC (not fully specified) [triple agonist of SEQ ID NO: 10] | < 0.1
37 | Y[Aib]QGTFTSDYSKALDEKAAKDFVNWLLDHHPSSGQPPPSC (bridge 16-20; not fully specified) [triple agonist of SEQ ID NO: 99] | 57.7
38 | Y[Aib]QGTFTSDYSKYLDEKRAKEFVQWLLDHCPSSGQPPPS (bridge 16-20; not fully specified) [triple agonist of SEQ ID NO: 96] | 5.2
39 | {Acetyl(2-(4-imidazolyl))}-[Aib]EGTFTSDYSIAMDEIHQKDFVDWLLAEKC (bridge 15-19; not fully specified) [triple agonist of SEQ ID NO: 91] | 0.3
